Test results: patent US20240101647A1 (VIB VZW, published 2024)

Key:
BSA = target: T1, BSA (UniProt P02769 25-607); assay: ELISA, coated BSA
T1 construct: also called Bovine Serum Albumin

[1] = target: SARS-CoV-2 spike protein on VSV-delG pseudovirus particles or on cells (SARS-CoV-2, UniProt P0DTC2 14-1273); assay: cell-based or functional assay

T1 sequence (P02769 25-607 limits assumed): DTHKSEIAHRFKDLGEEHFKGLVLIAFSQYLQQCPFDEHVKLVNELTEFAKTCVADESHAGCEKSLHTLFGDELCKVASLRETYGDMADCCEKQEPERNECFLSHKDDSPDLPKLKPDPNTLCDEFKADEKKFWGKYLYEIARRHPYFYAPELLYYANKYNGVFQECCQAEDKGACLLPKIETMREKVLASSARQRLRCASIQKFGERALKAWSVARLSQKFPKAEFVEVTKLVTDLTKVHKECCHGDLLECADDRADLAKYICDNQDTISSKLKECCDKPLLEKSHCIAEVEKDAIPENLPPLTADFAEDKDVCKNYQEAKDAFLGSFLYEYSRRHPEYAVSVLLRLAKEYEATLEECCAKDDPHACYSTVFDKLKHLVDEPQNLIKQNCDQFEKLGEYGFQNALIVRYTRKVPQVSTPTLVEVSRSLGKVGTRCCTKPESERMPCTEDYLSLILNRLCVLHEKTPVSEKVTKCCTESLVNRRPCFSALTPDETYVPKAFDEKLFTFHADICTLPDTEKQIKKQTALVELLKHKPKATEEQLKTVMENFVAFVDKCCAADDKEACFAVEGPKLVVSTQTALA

Binder | binding result (BSA) | neutralization relative to VHH72_h1_S56A [1]
VHH3.42 (VHH) VHH: QVQLQESGGGLVQPGGSLRLSCAASGSAVSINDMGWYRQPPGKQRELVATITKTGSTNYADSVKGRFTISRDNAKNAVYLEMNSLKPEDTATYYCNAWLPYGMGPDYYGMELWGKGTQVTVSS | no binding | ~6 fold
VHH3.117 (VHH) VHH: QVQLQESGGGLVQPGGSLRLSCAASGKAVSISDMGWYRQPPGKQRELVATITKTGSTNYADSAQGRFTISRDNTKSAVYLEMKSLKPEDTAVYYCNAWLPYGMGPDYYGMELWGKGTQVTVSS | no binding | ~6 fold
VHH3.92 (VHH) VHH: QVQLQESGGGLVQPGGSLRLSCAASGKAVSISDMGWYRQPPGKQRELVATITKTGNTNYADSAQGRFTISRDNAKSAVYLEMASLKPEDTAVYYCNAWLPYGMGPDYYGMELWGKGTQVTVSS | – | ~6 fold
